These are literature values, as cited in PMC9331682.

In this series the target is PD-1 (Homo sapiens) (UniProt Q15116).
Chain of PD-1 (Homo sapiens) (Q15116 25-170): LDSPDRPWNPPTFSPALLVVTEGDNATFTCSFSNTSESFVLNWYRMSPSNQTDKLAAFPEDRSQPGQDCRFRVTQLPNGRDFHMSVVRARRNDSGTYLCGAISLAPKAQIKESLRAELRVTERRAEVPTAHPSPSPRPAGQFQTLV

Take Dostarlimab: the Kd is 0.3 nM.

As usually defined, the Kd is the free concentration of one partner at which half of the binding sites on the other are occupied at equilibrium, for simple one-to-one binding.
